Reference: patent US7381413

Biological target: Fas (CD95) on L1210 and L1210/DDP cells (UniProt P25446)
Assay: cell-based or functional assay

Chain of UniProt P25446 (P25446 22-327 limits assumed): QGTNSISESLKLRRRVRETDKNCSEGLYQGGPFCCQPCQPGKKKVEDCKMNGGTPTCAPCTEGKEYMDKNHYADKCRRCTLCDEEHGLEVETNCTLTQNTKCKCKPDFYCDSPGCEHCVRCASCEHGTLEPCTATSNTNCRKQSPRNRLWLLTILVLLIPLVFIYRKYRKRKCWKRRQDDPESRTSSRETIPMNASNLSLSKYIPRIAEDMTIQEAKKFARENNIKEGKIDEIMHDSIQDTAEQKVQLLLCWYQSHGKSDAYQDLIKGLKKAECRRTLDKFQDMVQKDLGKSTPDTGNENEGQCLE

anti-Fas antibody Jo2.2 (Pharmingen)
% dead cells over background of untreated cells, L1210/0 on anti-Fas coated plates: 80% | % dead cells over background of untreated cells, L1210/DDP on anti-Fas coated plates: 46.6%
